# Assay: soluble on expression in E. coli; label from the status in PepcDB or PDB records
row,Sequence,soluble on expression in E. coli
1,MGSDKIHHHHHHMNRRRIALLLPRLGRYGGVEQFAWHLAEALAQRGHEVDFICARKEGEAPAGVRPVVVGRKGGLKVLKALHYLVQAERMRRRGDYDLTVSFGKTWEQDILRVGGGPLSTFWQLSGEAWPKGPRRTLKCLTRHLSPYNWLTHIIERRQYDGHCKIICVSDAVRGWTLQAFPSLAATPPEVIYNRPQLERFTPAPDTGRAACRERFSIPAGHVAIGTASSNFILKGVGHLIHALSLLPPHFMLLVAGGRNPGPFMDVARKLGVSDRVRFLGRVDDMPAFYNAIDVFALNTFYDACSNAVLEALACGTPALSTTRNGSSRFLPEAWVTDAPDDPADLAARLAALASEERTEGFAWPEDVKAGIPAWVERIEREMESGIRRG,not soluble
2,GPGSMSVTIYGIKNCDTMKKARIWLEDHGIDYTFHDYKKEGLDAETLDRFLKTVPWEQLLNRAGTTFRKLPEDVRSNVDAASARELMLAQPSMVKRPVLERDGKLMVGFKPAQYEAYFKL,soluble
3,MNPKHFIAFSALFAATQAEALPVASVSPDTVTVSPSAPYTDTNGLLTDYGNAAASPWMKKLRSVAQGSGEAFRILQIGDSHTAGDFFTDALRKRLQKTWGDGGIGWVYPANVKGQRMAAVRYNGNWQSLNSRSAAADFPLGGILAQTGSGGSMTLTASDGKTGKQRVSLFAKPLLAEQTLTVNGNTVSANGGGWQVLDTGAALPLAIQTEMPWDIGFINIENPAGGITVSAMGINGAQLTQWSKWRADRMNDLAQTGADLVILSYGTNEAFNNNIDIADTEQKWLDTVRQIRDSLPAAGILIIGAPESLKNTLGVCGTRPVLLTEVQQMQRRVARQGQTMFWSWQNAMGGICSMKNWLNQGWAAKDGVHFSAQGYRRAAEMLADSLEELVRAAAIR,soluble
4,MKLIRKYHMIPYENGSEYESAKRFLENILSASDVDPTTKCRFYQDVLYRIRNHPELPIVTEELFDVIQENLQQQNDNQKRNVKLERRNLKYEVIPEKRESYQEKYYESPPVYKAENEQLFDDVTYHNDGINHLKPRKNVYIKEEPEDEDYHMEYEKIPEINMEQNVNELFMEPQKHAPGKIKKSKKQKKDGTLSRPLGKKEKKSVQYATSNKRQKFDLKRGKSMNNVKPRKLYKLQLDEEDEDEEPMVDETPQNTEISIKKRPFQQDSTKNLNKRQKFDLKRRKNMSRVRPNKIYKMQNLKRNISSTIPDNGTNIPAAKRRVLHGSGSAPPPGSRVYCRLWKF,not soluble
5,MGSDKIHHHHHHMAAVLLTGHGGPEKLVYRTDVKVPSPDPGEVLVEVSACGMNNTDVWVRQGAYGTEEDAAAVSTWRRQGNTLVFPRIQGTDTVGTIVSVGEGVSPERIGERVMVDFSIYNRDDDSLADIDYMGHGRDGGYAEYQTVPAENAHVVDTDMSDVELATFCCAYLTGEQMLERAGLKAGERVLVTGASGGVGSGIVQLARARGAIPYAVVGKGKEQAVLDIGAEAVITRGVADLPRAVAEVTGGQPIDVVADLVGGAIFNDLLRILRPEGRYTTAGAIAGPVVQLDLRTMYLKQLQLHGSSQGTRADFRRIVGYIEAKKIRPLVGGVYRLSDFHRAQADFVAKDFVGKLVVVPDAIAERQA,not soluble
6,MGLQFAYLPVEIGQVSDEKCSAFHQLMATLPGPVLAFCNSGNRARALYSRDVGTTTTPAETISAACDWEHEAAAVTEAESEAAGAAAVSAASSRDEAAGKSIPVTPACNWDNAFDIVVVGGGSAGLGVTASLLRRRSSLRIAIIEPNDKHYYQPAWTLVGGGAYAVDQTVRNTADVIPHGAEWIKAEVSGFSPNDNLVHLADGRTIGYQQLIVCPGIRLAWEKIEGIQETLGKNGVTSNYLFDLAPYTWSLTQQLKGGKALFTQPPMPIKCAGAPQKAMYLSCDYWQRQGVLDKIEVEFDSAGAVLFGVADFVPPLMEYVRKYHANLVFNSNLVKVNGPEKIATFEIKNEAGEVTRVDKPFDMLHVTPPQAAPDFLRDSPLADASGYCEVNPKTLQHTRFANIFSLGDACSSPNTKTAAAVRKQIVIVAENLLAAKDGREFHAVYDGYGACPLTVENGKVVLAEFGFGGKLLPTFPLNPAVARKLYWWFKVKLFPWLYWEGLEHHHHHH,not soluble
7,MLNQSVRFLARRANSQIRRSNLLKTGSLAAQDRGFFFGKRREPRCDLKNQSIVQADGSRKSAWLGDKPLRHESFIGILTTYAGIRRGPTVGGKEMLGKRVMKNGKLEWEWITYEQAFEISDNVSQAIRKLGIEIGDKSNIGIYSKNRPEWVLSDMAIHNFSNVSVPIYDNIPNEDMHYITNLCEIPLMFVDSEDKTTQLIKDKTYLSKSLKYIVQFDKVSDEMKAMAESNNFQLWSFDEFVELGKKHEHRPHAPPTPETLATISFTSGTTGRPKGAMLTHLNLCSTTVACEEFEHVEGELDSYLSYLPLAHVYERHCTLAHFKIGSNFHNFLNKFVEVFFFFKRISSKVTKIFRRIGFSRGDPALLVEDIQALAPRTFACVPRVLGKIYKSVMSQVQDKPVKKMILNSAIAYKLYHYKMTGKATRDTLVDKYILHKIQMILGPNIKQFLIPAAKTDNSSMRFARGAFGIEILELYGLTETSGPTTIQLVGDMLGSVGPPISCTSIKLVDIAELGYFVDENGGEVLVKGHNVTSGYYKDPKATASAFTEDGFMKTGDIGKFTPEGTLQLIDRRDNVLKLPQGEFVAPDLTESLYISSKFVQQICVHGNKEKPWLVAVVVPDPEYLASHANLEHNIEGKTYEELCKIPALAEDVLHALIKFFIWVFAIHLTPIAFSPQNGLTTPTHKNKRTAIAQFFKKQIVEMFDRIEKEEEGTELTTKIENAH,not soluble
8,MGSDKIHHHHHHMNDVQQAINSDDIPLTDELVVSYLQDNPEFFNRNNSLMTGLRLNDEQRGTVSLVERQQQQLRQKVYGLEDEITQLMSVANHNEQLFVLYSDLYLRLLDCQSAEELLDCLHQATTELLSLSSFKLWLVSGNNTEVAHHSLSTNDCAGVMQNRLTNDEYYFGRLQESEQTLIFSKPCLGSVVLIKLTHDEQAVGFLAIGSEDAHHFDPRMDTLLLNQFKRLVAKLLHQQLSM,not soluble
9,MGSDKIHHHHHHMINTKNLNVFYNENKVLKDIQLEVIPGRITGIIGPNGAGKSTLIKAILNIVPHSGEILINGEVSKKQLKKIAYVEQKSDIDHTFPIKVKECVSLGTYTGLKLFQKLGAKEWSRVSEALQKVNLLDYENRQIGELSGGQFQRVLLARCLVQEADYIFLDEPFVGIDSISEKIIMDILQDLKHQGKTILIVHHDLSKVKEYFDDIIILNRELIAYGPINENFSQKNLKKAYGDNIFIGD,not soluble
10,TAAVALVKANENAAAILNLKNAIQKTNAAVADVVQATQSLGTAVQAVQDHINSVVSPAITAANY,soluble
11,MPENSQPTTTEKGSEYLEQLANEAEELRKKLDQERHKLNDIPIQQAAERLDVMGALGVKQRRILKGHVGKVLCMDWSLDKRHIVSSSQDGKVIVWDGFTTNKEHALTMPTTWVMACAFSPSSQMIACGGLDNKCSVVPLSFEDDIIQKKRQVATHTSYMSCCTFLRSDNLILTGSGDSTCAIWDVESGQLIQNFHGHTGDVFAIDVPKCDTGNTFISAGADKHSLVWDIRSGQCVQSFEGHEADINTVRFHPNGDAFATGSDDATCRLFDLRADRQVCVYEKESILFPVNGVDFSLSGRILFAGYGDYRVGVWDSLKCARHSVLYGHENRISCLRTSPDGTAVCSASWDCTIRIWA,not soluble
12,SMSRPDQAARRRAIAAELHVSPTFDARDEAERRIGFVADYLRTAGLRACVLGISGGIDSSTAGRLAQLAVERLRASGYDARFVAMRLPYGAQHDEADARRALAFVRADETLTVDVKPAADAMLAALAAGGLAYLDHAQQDFVLGNIKARERMIAQYAVAGARNGVVIGTDHAAESVMGFFTKFGDGGADVLPLAGLTKRRVRALARMLGADEPLVLKTPTADLETLRPQRPDEHAYGITYEQIDDFLEGKPMDDAVAETVLRFYDATRHKRALPYTMFDWPGHPA,soluble
13,MAHHHHHHMNWCLSRRWRFRLELLSASLLSRVHIGCHAEPRNNMSTTPAKNELASVHESIQITLSKIQEDSAKRSSQEQQLISSVASAKCLAGIFSAHSPTNDEVVRALKSAGEEEQVEAECLQRYQQFVEAKKRCFTSVEADLRSVSKVLSGVLAASEKVEEPTSGDCRAEVQENQCDGELLHLLRLWRTVVCLHDLVLGSLIKRGSDGSPCELQRFSAGEERSYVRESALRNTVADTEKMLLAIRKRWRDLTEEAEAVRATAESMTPLPFSDEATLLIADEKDEPLVASINQGLHELQQSSDRLRKKKVAVDEGAAALLEKVRNLSLQTAACRCSVEAFSQRSREAADDANSLMSAKARALQELHRKAQECASEQGLLDRDVGSYKQLCALLVEWAENEKSEAERIVAAEQEYHSLVSKERAQQEKLRCLRLSIKNLESEVRDASTEKQRIVGEVQYLSKLVSNPTVVTQVLARASEECHPEREVTALHNYLRFVQKARLERHTSHE,not soluble
14,MDRFHATSADCCISYTPRSIPCSLLESYFETNSECSKPGVIFLTKKGRRFCANPSDKQVQVCMRMLKLDTRIKTRKN,soluble
15,MSQTNESFAALFEESIARSNMKAGEVISAEVVRIDHNFVVVNAGLKSEAFVPVEEFLNDQGELEVQVGDYVSVAIDALENGYGDTILSRDKAKRLASWLNLEKALESGEIISGTVTGKVKGGLTVMVNGIRAFLPGSLVDVRPIKDTTPYEGKTLEFKVIKLDRKRNNVVLSRRAVVEATLGEERQKLMETLKEGAIVNGIVKNITDYGAFVDLGGIDGLLHITDLAWRRVRHPSEVLSVGQEITAKILKFDQEKNRVSLGVKQLGEDPWVGISRRYPQGTRLFGKVTNLTDYGAFVEIEAGIEGLVHVSEMDWTNKNVAPSKVVQLGDEVEVMVLDIDEDKRRISLGMKQCKANPWDDFARNHKKGDKLAGQIKSITDFGVFIGLPGGIDGLVHLSDLSWQETGEEAVRKYKKGDEVEAVVLAIDVEKERISLGIKQLSGDPFNNFISANDKGSIVSVTIKTVDPKGAVVQLADDVEGYLRASEISSDRVEDARNVLKEGETMTAMIVNIDRKSRNINVSIKAKDSADQQEAMQKFAQDTGTAGTTNLGALLKAKLNETNQLEHHHHHH,soluble
16,MAHHHHHHMHRRTLRRLQQVVQNPPVGSANIPSPYATEGGHVPIWSIVNGFVQKRNWVFRNPEWCDLCKEPVALWVNHHGRKDHALMDMHYTQMVEFPRRWNPEEILAVFLEELGLSVEAYQKYYGGYEREHRNELYAMLVALEEAKMLHFGEPRDTYLYRMQGGLRGMDHQGALVLHRYILGPFMRIYPNGHIQDYSNLVDFVTCAYNMETVYDLCGFYTLDKVALKADYKPSSPAALGLGGIAVHSSATHGFAQQAMEKPQQSPQPQPQRHMTVGTGGRSAADMEEEAFSRKAVFVRQLLGQLRWLTLPDEEHPAGHMFPQHLMFLGEICLKSLVAEIVAARLCEYMVRVEPVWRDHGYERVKLDVDKIMRKENDILPEPVKFFYRPMSPKMDDLYSTNRGNLDEALEKAVVAPVSGKGA,soluble
17,MGKQCFVTGRKASTGNNRSHALNSSKRRWNANLQKVRILVDGKPKKVWVSARALKSGKVTRVLEHHHHHH,not soluble
18,MGSDKIHHHHHHMSLTPVLDKIDSDVSAATDRLLELLRIPSISTDPAYKADCDAAADWLVKDLNSIGIKAEKRETPGHPMVVGHVGEENTKGPHLLFYGHYDVQPVDPLNLWNTPPFEPQLEETPNGTVIRGRGASDDKGQLMTFVEACRAWQAVHGTLPCRITFFFEGEEESGSPSLIPFLEAAKEELSADIALICDTSMVARGVPLVASQLRGMMKDEFTLIGPKIDLHSGHYGGPGLNPLREISHIIASFHDPDTGAVAVEGFYEGVPEVPADILRQWEGCGFDEKDYLSNAGYTEAHGEKKYSTLEQQWARPTLEINGLWGGYQGAGTKTVIPSEAHCKITCRLVGDMDPADLRQKIRKHVEDRLPTDCTVKWDLDLDGAPAYVIDTTRPEFEAARGALTEEWNREAVFSGMGGSIPVAGYFKSILGMDAMLIGFANEDDAIHSPNEKYDLESFHKGIRSWARVLDALSKA,not soluble

# Reference: the DeepSol protein solubility set
